Laboratory results as given in patent US20160272693A1 (ZEALAND PHARMA A S, published 2016).
*1 amine or outer side, *2 acyl side, *3 side chain or, on linkers, in order; H or OH if unused. Bridges are numbered along the chain shown (N, C = ends). [ ]: non-standard residue; d: D form. The star is where a group is joined. C20 diacid = O=C(O)CCCCCCCCCCCCCCCCCCC(=O)*; γGlu = O=C(O)[C@H](CCC(=O)[*:2])N[*:1]; Hyp = O=C(O)[C@@H]1C[C@@H](O)CN1; NMeI = CC[C@H](C)[C@H](NC)C(=O)O; Aad = N[C@@H](CCCC(=O)O)C(=O)O; Sar = CNCC(=O)O

T1: human amylin receptor 3 (hAMYR3), hCTR2 co-expressed with human receptor activity modifying protein 3 (hRAMP3) (human, UniProt P30988 25-474; O60896 24-148)
T1 sequence (looked up) 1: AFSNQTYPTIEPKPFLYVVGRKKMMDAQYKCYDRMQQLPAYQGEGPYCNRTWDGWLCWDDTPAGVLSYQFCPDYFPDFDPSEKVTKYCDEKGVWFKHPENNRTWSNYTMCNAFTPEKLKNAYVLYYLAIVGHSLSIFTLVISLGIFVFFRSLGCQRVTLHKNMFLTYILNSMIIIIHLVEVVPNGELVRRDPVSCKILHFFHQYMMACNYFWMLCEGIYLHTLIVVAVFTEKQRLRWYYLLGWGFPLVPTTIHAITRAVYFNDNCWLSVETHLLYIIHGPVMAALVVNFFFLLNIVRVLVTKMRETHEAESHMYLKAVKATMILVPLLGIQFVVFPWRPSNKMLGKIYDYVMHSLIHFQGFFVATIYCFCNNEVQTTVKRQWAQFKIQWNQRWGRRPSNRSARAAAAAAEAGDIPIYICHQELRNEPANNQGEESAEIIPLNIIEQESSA
T1 sequence (looked up) 2: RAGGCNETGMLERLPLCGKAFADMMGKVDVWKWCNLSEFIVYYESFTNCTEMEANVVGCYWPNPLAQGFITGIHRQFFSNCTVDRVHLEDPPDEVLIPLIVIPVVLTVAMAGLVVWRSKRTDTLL

B1: [19CD]-isoGlu-R-C( )-QTAT-C( )-ATDRLAHFLQRSSF-Gly(Me)-A-Ile(Me)-LSSTEVGSNTP-NH2 (Compd. 92) (peptide)
peptide: {C20 diacid}-[γGlu]RCQTATCATDRLAHFLQRSSF[Sar]A[NMeI]LSSTEVGSNTP-NH2
modifications: disulfide 3-8
SMILES: CC[C@H](C)[C@@H](C(=O)N[C@@H](CC(C)C)C(=O)N[C@@H](CO)C(=O)N[C@@H](CO)C(=O)N[C@H](C(=O)N[C@@H](CCC(=O)O)C(=O)N[C@H](C(=O)NCC(=O)N[C@@H](CO)C(=O)N[C@@H](CC(N)=O)C(=O)N[C@H](C(=O)N1CCC[C@H]1C(N)=O)[C@@H](C)O)C(C)C)[C@@H](C)O)N(C)C(=O)[C@H](C)NC(=O)CN(C)C(=O)[C@H](Cc1ccccc1)NC(=O)[C@H](CO)NC(=O)[C@H](CO)NC(=O)[C@H](CCCNC(=N)N)NC(=O)[C@H](CCC(N)=O)NC(=O)[C@H](CC(C)C)NC(=O)[C@H](Cc1ccccc1)NC(=O)[C@H](Cc1c[nH]cn1)NC(=O)[C@H](C)NC(=O)[C@H](CC(C)C)NC(=O)[C@H](CCCNC(=N)N)NC(=O)[C@H](CC(=O)O)NC(=O)[C@@H](NC(=O)[C@H](C)NC(=O)[C@@H]1CSSC[C@H](NC(=O)[C@H](CCCNC(=N)N)NC(=O)CC[C@H](NC(=O)CCCCCCCCCCCCCCCCCCC(=O)O)C(=O)O)C(=O)N[C@@H](CCC(N)=O)C(=O)N[C@@H]([C@@H](C)O)C(=O)N[C@@H](C)C(=O)N[C@@H]([C@@H](C)O)C(=O)N1)[C@@H](C)O
B2: [19CD]-isoGlu-R-C( )-NTAT-C( )-ATQRLADFLHRSSF-Gly(Me)-A-Ile(Me)-LSSTEVGSETP-NH2 (Compd. 1) (peptide)
peptide: {C20 diacid-γGlu}-RCNTATCATQRLADFLHRSSF[Sar]A[NMeI]LSSTEVGSETP-NH2
modifications: disulfide 2-7
SMILES: CC[C@H](C)[C@@H](C(=O)N[C@@H](CC(C)C)C(=O)N[C@@H](CO)C(=O)N[C@@H](CO)C(=O)N[C@H](C(=O)N[C@@H](CCC(=O)O)C(=O)N[C@H](C(=O)NCC(=O)N[C@@H](CO)C(=O)N[C@@H](CCC(=O)O)C(=O)N[C@H](C(=O)N1CCC[C@H]1C(N)=O)[C@@H](C)O)C(C)C)[C@@H](C)O)N(C)C(=O)[C@H](C)NC(=O)CN(C)C(=O)[C@H](Cc1ccccc1)NC(=O)[C@H](CO)NC(=O)[C@H](CO)NC(=O)[C@H](CCCNC(=N)N)NC(=O)[C@H](Cc1c[nH]cn1)NC(=O)[C@H](CC(C)C)NC(=O)[C@H](Cc1ccccc1)NC(=O)[C@H](CC(=O)O)NC(=O)[C@H](C)NC(=O)[C@H](CC(C)C)NC(=O)[C@H](CCCNC(=N)N)NC(=O)[C@H](CCC(N)=O)NC(=O)[C@@H](NC(=O)[C@H](C)NC(=O)[C@@H]1CSSC[C@H](NC(=O)[C@H](CCCNC(=N)N)NC(=O)CC[C@H](NC(=O)CCCCCCCCCCCCCCCCCCC(=O)O)C(=O)O)C(=O)N[C@@H](CC(N)=O)C(=O)N[C@@H]([C@@H](C)O)C(=O)N[C@@H](C)C(=O)N[C@@H]([C@@H](C)O)C(=O)N1)[C@@H](C)O
B3: [19CD]-isoGlu-R-C( )-QTAT-C( )-ATDRLA-Aad-FLQRF-Gly(Me)-A-Ile(Me)-LSSTEVGSNT-Hyp-NH2 (Compd. 95) (peptide)
peptide: {C20 diacid}-[γGlu]RCQTATCATDRLA[Aad]FLQRF[Sar]A[NMeI]LSSTEVGSNT[Hyp]-NH2
modifications: disulfide 3-8
SMILES: CC[C@H](C)[C@@H](C(=O)N[C@@H](CC(C)C)C(=O)N[C@@H](CO)C(=O)N[C@@H](CO)C(=O)N[C@H](C(=O)N[C@@H](CCC(=O)O)C(=O)N[C@H](C(=O)NCC(=O)N[C@@H](CO)C(=O)N[C@@H](CC(N)=O)C(=O)N[C@H](C(=O)N1C[C@H](O)C[C@H]1C(N)=O)[C@@H](C)O)C(C)C)[C@@H](C)O)N(C)C(=O)[C@H](C)NC(=O)CN(C)C(=O)[C@H](Cc1ccccc1)NC(=O)[C@H](CCCNC(=N)N)NC(=O)[C@H](CCC(N)=O)NC(=O)[C@H](CC(C)C)NC(=O)[C@H](Cc1ccccc1)NC(=O)[C@H](CCCC(=O)O)NC(=O)[C@H](C)NC(=O)[C@H](CC(C)C)NC(=O)[C@H](CCCNC(=N)N)NC(=O)[C@H](CC(=O)O)NC(=O)[C@@H](NC(=O)[C@H](C)NC(=O)[C@@H]1CSSC[C@H](NC(=O)[C@H](CCCNC(=N)N)NC(=O)CC[C@H](NC(=O)CCCCCCCCCCCCCCCCCCC(=O)O)C(=O)O)C(=O)N[C@@H](CCC(N)=O)C(=O)N[C@@H]([C@@H](C)O)C(=O)N[C@@H](C)C(=O)N[C@@H]([C@@H](C)O)C(=O)N1)[C@@H](C)O
B4: [19CD]-isoGlu-R-C( )-QTAT-C( )-ATERLAHFLQRSSF-Gly(Me)-A-Ile(Me)-LSSTEVGSGT-Hyp-NH2 (Compd. 90) (peptide)
peptide: {C20 diacid-γGlu}-RCQTATCATERLAHFLQRSSF[Sar]A[NMeI]LSSTEVGSGT[Hyp]-NH2
modifications: disulfide 2-7
B5: [19CD]-isoGlu-R-C( )-QTAT-C( )-ATERLA-Aad-FLQRSSF-Gly(Me)-A-Ile(Me)-LSSTEVGSNTP-NH2 (Compd. 93) (peptide)
peptide: {C20 diacid}-[γGlu]RCQTATCATERLA[Aad]FLQRSSF[Sar]A[NMeI]LSSTEVGSNTP-NH2
modifications: disulfide 3-8
SMILES: CC[C@H](C)[C@@H](C(=O)N[C@@H](CC(C)C)C(=O)N[C@@H](CO)C(=O)N[C@@H](CO)C(=O)N[C@H](C(=O)N[C@@H](CCC(=O)O)C(=O)N[C@H](C(=O)NCC(=O)N[C@@H](CO)C(=O)N[C@@H](CC(N)=O)C(=O)N[C@H](C(=O)N1CCC[C@H]1C(N)=O)[C@@H](C)O)C(C)C)[C@@H](C)O)N(C)C(=O)[C@H](C)NC(=O)CN(C)C(=O)[C@H](Cc1ccccc1)NC(=O)[C@H](CO)NC(=O)[C@H](CO)NC(=O)[C@H](CCCNC(=N)N)NC(=O)[C@H](CCC(N)=O)NC(=O)[C@H](CC(C)C)NC(=O)[C@H](Cc1ccccc1)NC(=O)[C@H](CCCC(=O)O)NC(=O)[C@H](C)NC(=O)[C@H](CC(C)C)NC(=O)[C@H](CCCNC(=N)N)NC(=O)[C@H](CCC(=O)O)NC(=O)[C@@H](NC(=O)[C@H](C)NC(=O)[C@@H]1CSSC[C@H](NC(=O)[C@H](CCCNC(=N)N)NC(=O)CC[C@H](NC(=O)CCCCCCCCCCCCCCCCCCC(=O)O)C(=O)O)C(=O)N[C@@H](CCC(N)=O)C(=O)N[C@@H]([C@@H](C)O)C(=O)N[C@@H](C)C(=O)N[C@@H]([C@@H](C)O)C(=O)N1)[C@@H](C)O
B6: [19CD]-isoGlu-R-C( )-GTAT-C( )-ATERLAHFLTRSSF-Gly(Me)-A-Ile(Me)-LSSTEVGSST-Hyp-NH2 (Compd. 9) (peptide)
peptide: {C20 diacid}-[γGlu]RCGTATCATERLAHFLTRSSF[Sar]A[NMeI]LSSTEVGSST[Hyp]-NH2
modifications: disulfide 3-8
B7: [19CD]-isoGlu-R-C( )-QTAT-C( )-ATDRLAHFLQRSSF-Gly(Me)-A-Ile(Me)-LSSTEVGSGT-Hyp-NH2 (Compd. 91) (peptide)
peptide: {C20 diacid}-[γGlu]RCQTATCATDRLAHFLQRSSF[Sar]A[NMeI]LSSTEVGSGT[Hyp]-NH2
modifications: disulfide 3-8
SMILES: CC[C@H](C)[C@@H](C(=O)N[C@@H](CC(C)C)C(=O)N[C@@H](CO)C(=O)N[C@@H](CO)C(=O)N[C@H](C(=O)N[C@@H](CCC(=O)O)C(=O)N[C@H](C(=O)NCC(=O)N[C@@H](CO)C(=O)NCC(=O)N[C@H](C(=O)N1C[C@H](O)C[C@H]1C(N)=O)[C@@H](C)O)C(C)C)[C@@H](C)O)N(C)C(=O)[C@H](C)NC(=O)CN(C)C(=O)[C@H](Cc1ccccc1)NC(=O)[C@H](CO)NC(=O)[C@H](CO)NC(=O)[C@H](CCCNC(=N)N)NC(=O)[C@H](CCC(N)=O)NC(=O)[C@H](CC(C)C)NC(=O)[C@H](Cc1ccccc1)NC(=O)[C@H](Cc1c[nH]cn1)NC(=O)[C@H](C)NC(=O)[C@H](CC(C)C)NC(=O)[C@H](CCCNC(=N)N)NC(=O)[C@H](CC(=O)O)NC(=O)[C@@H](NC(=O)[C@H](C)NC(=O)[C@@H]1CSSC[C@H](NC(=O)[C@H](CCCNC(=N)N)NC(=O)CC[C@H](NC(=O)CCCCCCCCCCCCCCCCCCC(=O)O)C(=O)O)C(=O)N[C@@H](CCC(N)=O)C(=O)N[C@@H]([C@@H](C)O)C(=O)N[C@@H](C)C(=O)N[C@@H]([C@@H](C)O)C(=O)N1)[C@@H](C)O
B8: [19CD]-isoGlu-R-C( )-QTAT-C( )-ATERLAHFLQRF-Gly(Me)-A-Ile(Me)-LSSTEVGSNTP-NH2 (Compd. 96) (peptide)
peptide: {C20 diacid-γGlu}-RCQTATCATERLAHFLQRF[Sar]A[NMeI]LSSTEVGSNTP-NH2
modifications: disulfide 2-7
SMILES: CC[C@H](C)[C@@H](C(=O)N[C@@H](CC(C)C)C(=O)N[C@@H](CO)C(=O)N[C@@H](CO)C(=O)N[C@H](C(=O)N[C@@H](CCC(=O)O)C(=O)N[C@H](C(=O)NCC(=O)N[C@@H](CO)C(=O)N[C@@H](CC(N)=O)C(=O)N[C@H](C(=O)N1CCC[C@H]1C(N)=O)[C@@H](C)O)C(C)C)[C@@H](C)O)N(C)C(=O)[C@H](C)NC(=O)CN(C)C(=O)[C@H](Cc1ccccc1)NC(=O)[C@H](CCCNC(=N)N)NC(=O)[C@H](CCC(N)=O)NC(=O)[C@H](CC(C)C)NC(=O)[C@H](Cc1ccccc1)NC(=O)[C@H](Cc1c[nH]cn1)NC(=O)[C@H](C)NC(=O)[C@H](CC(C)C)NC(=O)[C@H](CCCNC(=N)N)NC(=O)[C@H](CCC(=O)O)NC(=O)[C@@H](NC(=O)[C@H](C)NC(=O)[C@@H]1CSSC[C@H](NC(=O)[C@H](CCCNC(=N)N)NC(=O)CC[C@H](NC(=O)CCCCCCCCCCCCCCCCCCC(=O)O)C(=O)O)C(=O)N[C@@H](CCC(N)=O)C(=O)N[C@@H]([C@@H](C)O)C(=O)N[C@@H](C)C(=O)N[C@@H]([C@@H](C)O)C(=O)N1)[C@@H](C)O

Target: T1, human amylin receptor 3 (hAMYR3), hCTR2 …
Test: cell-based or functional assay

Binder | hAMYR3 EC50 (nM); cAMP induction [nM]
B1 | 0.22
B2 | 0.23
B3 | 0.2
B4 | 0.24
B5 | 0.43
B6 | 0.29
B7 | 0.17
B8 | 0.28
